Measurements reported in US20230118024A1 (Chugai, published 2023).

T1: HLA-DQ2.5 on HLA-DQ2.5 positive PBMC-B cells (human, UniProt P01909 24-254; P01920 33-261)
T1 construct: also called DQ2.5 + PBMC; HLA-DQ2.5+PBMC B cell
T1 MHC II alpha: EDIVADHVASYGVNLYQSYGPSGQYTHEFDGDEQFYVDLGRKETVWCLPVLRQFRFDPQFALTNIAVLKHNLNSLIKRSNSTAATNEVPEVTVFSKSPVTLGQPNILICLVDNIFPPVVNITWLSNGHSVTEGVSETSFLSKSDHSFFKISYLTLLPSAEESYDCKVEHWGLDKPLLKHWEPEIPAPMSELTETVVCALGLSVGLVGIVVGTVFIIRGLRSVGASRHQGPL
T1 MHC II beta: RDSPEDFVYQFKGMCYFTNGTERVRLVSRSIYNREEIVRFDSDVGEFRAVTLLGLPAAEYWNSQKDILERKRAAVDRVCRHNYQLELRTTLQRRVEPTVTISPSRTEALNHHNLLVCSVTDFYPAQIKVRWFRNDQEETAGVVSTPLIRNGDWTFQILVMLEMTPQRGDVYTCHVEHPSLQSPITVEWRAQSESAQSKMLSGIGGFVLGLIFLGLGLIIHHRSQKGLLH

T2: HLA-DR on Ba/F3 cells (human, UniProt P01903 26-216; P79483 30-227, limits assumed)
T2 construct: whole, on cells; also called Ba/F3-HLA-DR
T2 MHC II alpha: not shown
T2 MHC II beta: not shown

T3: HLA-DQ2.2 on Ba/F3 cells (human, UniProt P01909 24-254; P01920 33-261)
T3 construct: also called Ba/F3-HLA-DQ2.2
T3 MHC II alpha: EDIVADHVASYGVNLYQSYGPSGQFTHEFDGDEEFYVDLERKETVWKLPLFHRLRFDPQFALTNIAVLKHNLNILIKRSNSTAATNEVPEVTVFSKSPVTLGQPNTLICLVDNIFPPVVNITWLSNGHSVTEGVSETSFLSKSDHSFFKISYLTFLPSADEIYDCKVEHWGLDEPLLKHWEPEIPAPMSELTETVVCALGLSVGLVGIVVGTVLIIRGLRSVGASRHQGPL
T3 MHC II beta: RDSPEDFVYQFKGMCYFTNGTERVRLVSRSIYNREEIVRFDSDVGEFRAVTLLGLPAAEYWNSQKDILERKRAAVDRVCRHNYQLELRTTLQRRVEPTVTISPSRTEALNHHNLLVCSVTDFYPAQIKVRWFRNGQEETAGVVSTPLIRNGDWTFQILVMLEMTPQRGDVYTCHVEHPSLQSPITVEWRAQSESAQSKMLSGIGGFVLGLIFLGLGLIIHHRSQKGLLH

T4: HLA-DQ2.5 on Ba/F3 cells (not in the form of a complex with a linked peptide) (human, UniProt P01909 24-254; P01920 33-261)
T4 construct: also called Ba/F3-HLA-DQ2.5; No peptide
T4 MHC II alpha: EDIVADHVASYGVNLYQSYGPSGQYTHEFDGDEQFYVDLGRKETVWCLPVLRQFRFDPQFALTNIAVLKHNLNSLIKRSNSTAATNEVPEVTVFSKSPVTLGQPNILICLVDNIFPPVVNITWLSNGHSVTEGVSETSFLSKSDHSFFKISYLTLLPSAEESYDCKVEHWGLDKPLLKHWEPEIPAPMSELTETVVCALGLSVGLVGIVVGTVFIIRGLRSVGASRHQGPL
T4 MHC II beta: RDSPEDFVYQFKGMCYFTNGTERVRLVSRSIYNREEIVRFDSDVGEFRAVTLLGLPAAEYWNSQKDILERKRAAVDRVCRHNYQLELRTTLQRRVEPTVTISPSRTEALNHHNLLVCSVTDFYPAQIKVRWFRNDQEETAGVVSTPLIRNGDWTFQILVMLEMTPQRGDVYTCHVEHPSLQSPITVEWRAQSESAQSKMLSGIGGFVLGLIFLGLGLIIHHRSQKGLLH

T5: HLA-DQ8 on Ba/F3 cells (human, UniProt P01909 24-254; P01920 33-261)
T5 construct: also called Ba/F3-HLA-DQ8
T5 MHC II alpha: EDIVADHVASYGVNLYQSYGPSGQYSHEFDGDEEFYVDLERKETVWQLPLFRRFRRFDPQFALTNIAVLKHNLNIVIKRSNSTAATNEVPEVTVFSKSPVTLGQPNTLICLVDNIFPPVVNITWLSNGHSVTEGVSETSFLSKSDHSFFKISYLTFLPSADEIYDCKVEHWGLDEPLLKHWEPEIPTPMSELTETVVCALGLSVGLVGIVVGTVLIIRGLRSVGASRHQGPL
T5 MHC II beta: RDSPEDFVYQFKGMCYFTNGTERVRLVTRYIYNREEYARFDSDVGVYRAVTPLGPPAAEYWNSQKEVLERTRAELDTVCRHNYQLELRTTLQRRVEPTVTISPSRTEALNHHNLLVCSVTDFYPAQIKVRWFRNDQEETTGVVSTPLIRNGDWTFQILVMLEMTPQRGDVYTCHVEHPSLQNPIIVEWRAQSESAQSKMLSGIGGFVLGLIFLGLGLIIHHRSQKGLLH

T6: HLA-DQ7.3 on Ba/F3 cells (human, UniProt P01909 24-254; P01920 33-261)
T6 construct: also called Ba/F3-HLA-DQ7.3
T6 MHC II alpha: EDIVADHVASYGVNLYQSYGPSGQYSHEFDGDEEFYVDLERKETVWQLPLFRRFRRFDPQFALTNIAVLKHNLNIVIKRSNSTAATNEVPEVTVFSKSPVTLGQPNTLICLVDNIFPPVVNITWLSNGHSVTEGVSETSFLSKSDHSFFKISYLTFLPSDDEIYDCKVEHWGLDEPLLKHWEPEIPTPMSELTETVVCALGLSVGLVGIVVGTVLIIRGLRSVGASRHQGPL
T6 MHC II beta: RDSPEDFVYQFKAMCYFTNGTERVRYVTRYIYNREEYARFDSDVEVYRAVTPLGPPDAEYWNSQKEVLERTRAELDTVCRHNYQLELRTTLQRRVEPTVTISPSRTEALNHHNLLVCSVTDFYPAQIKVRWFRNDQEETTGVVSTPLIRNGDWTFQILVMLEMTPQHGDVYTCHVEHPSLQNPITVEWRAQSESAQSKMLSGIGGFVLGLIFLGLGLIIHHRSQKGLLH


How the values were obtained:
[1] = target: T1, HLA-DQ2.5 on HLA-DQ2.5 positive PBMC-B …; assay: FACS, HLA-DQ2.5 positive PBMC with FcR blocking reagent, anti-CD19 stain, Alexa Fluor 555 anti-human IgG Fc antibody (Example 8)
[2] = target: T2, HLA-DR on Ba/F3 cells; assay: FACS, Ba/F3 cells expressing the target, goat F(ab')2 anti-human IgG-PE (Example 10)
[3] = target: T3, HLA-DQ2.2 on Ba/F3 cells; assay: FACS, Ba/F3 cells expressing the target, goat F(ab')2 anti-human IgG-PE (Example 9)
[4] = target: T4, HLA-DQ2.5 on Ba/F3 cells (not in the …); assay: FACS, Ba/F3 cells expressing the target, goat F(ab')2 anti-human IgG-PE (Example 7)
[5] = target: T7, HLA-DQ6.3 on Ba/F3 cells (human, UniProt P01920 33-261); assay: FACS, Ba/F3 cells expressing the target, goat F(ab')2 anti-human IgG-PE (Example 4.2)
T7 construct: also called BaF3-HLA-DQ6.3

[6] = target: T8, HLA-DP on Ba/F3 cells (human, UniProt P20036 29-222; P04440 30-225, limits assumed); assay: FACS, Ba/F3 cells expressing the target, goat F(ab')2 anti-human IgG-PE (Example 10)
T8 construct: whole, on cells; also called Ba/F3-HLA-DP

[7] = target: T5, HLA-DQ8 on Ba/F3 cells; assay: as above
[8] = target: T6, HLA-DQ7.3 on Ba/F3 cells; assay: FACS, Ba/F3 cells expressing the target, goat F(ab')2 anti-human IgG-PE (Example 4.2)
[9] = target: T9, HLA-DQ5.1 on Ba/F3 cells (human); assay: FACS, Ba/F3 cells expressing the target, goat F(ab')2 anti-human IgG-PE (Example 10)
T9 construct: also called BaF3-HLA-DQ5.1

[10] = target: T8, HLA-DP on Ba/F3 cells; assay: FACS, FIG. 6
[11] = target: T2, HLA-DR on Ba/F3 cells; assay: FACS, FIG. 7

T8 sequence (P20036 29-222 limits assumed, chain 1 of 4, other chains not shown): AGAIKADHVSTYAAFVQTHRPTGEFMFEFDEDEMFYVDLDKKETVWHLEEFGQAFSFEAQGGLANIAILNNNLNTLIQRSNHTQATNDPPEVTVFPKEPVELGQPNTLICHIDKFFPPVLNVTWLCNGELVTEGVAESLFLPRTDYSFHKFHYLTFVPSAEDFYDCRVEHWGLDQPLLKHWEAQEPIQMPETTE
T8 sequence (P04440 30-225 limits assumed, chain 2 of 4, other chains not shown): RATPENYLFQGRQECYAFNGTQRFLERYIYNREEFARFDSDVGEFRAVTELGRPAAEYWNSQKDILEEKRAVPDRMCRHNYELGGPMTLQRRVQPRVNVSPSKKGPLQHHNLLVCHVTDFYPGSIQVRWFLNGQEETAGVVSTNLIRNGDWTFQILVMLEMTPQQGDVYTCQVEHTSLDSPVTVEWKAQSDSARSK

Binder	binding result [1]	binding result [2]	binding result [3]	binding result [4]	binding result [5]	binding result [6]	binding result [7]	binding result [8]	binding result [9]	binding result [10]	binding result [11]
IC17 (antibody, V domains shown, also called IC17H; IC17L) VH: QVQLQQSGPQLVRPGASVNISCKASGYSFTSYWMHWVNQRPGQGLEWIGMIDPSYSETRLNQKFKDKATLTVDKSSSTAYMQLSSPTSEDSAVYYCALYGNYFDYWGQGTTLTVSS VL: DIQMTQSSSSFSVSLGDRVTITCKASEDIYNRLAWYQQKPGNAPRLLISGATSLETGVPSRFSGSGSGKDYTLSITSLQTEDVATYYCQQYWSTPYTFGGGTKLEVK	no binding (tested: 10 microgram/mL)	no binding (tested: 20 microgram/mL)	no binding (tested: 10 microgram/mL)	no binding (tested: 10 microgram/mL)	no binding (tested: 20 microgram/mL)	no binding (tested: 20 microgram/mL)	no binding (tested: 20 microgram/mL)	no binding (tested: 20 microgram/mL)	no binding (tested: 20 microgram/mL)	–	–
DQN0089ff (antibody, V domains shown, also called DQN0089Hf; DQN0089Lf) VH: QEQVVEYGGDLVQPEGSLTLTCKASGLDFSSTYYMCWVRQAPGKGLEWIGCIYGGSSDSTYYASWAKGRFTISKTSPTTVTLQMTSLTAADTATHFCATYDYGAVGYDLWGPGTLVTVSS VL: EVVVTQTPASVEVAVGGTVTIKCQASQNISPYLSWYQQKPGQPPKLLIYKASTLASGVSSRFKGSGSGTQFTLTISDLECADAATYYCQNNYGVSINYGHTFGGGTKVEIK	–	–	–	–	–	–	–	–	–	binds	binds
